Read-outs that look alike come from different tables or passages of the source.
Tests used:
[1] = biological target: T1, mouse Tim-3 expressed on cell lines (mouse, UniProt Q8VIM0 20-281); experiment: FACS on cell lines expressing mouse Tim-3
T1 construct: whole, on cells

human Tim-3 protein [2] = biological target: T2, human Tim-3 protein (human, UniProt Q8TDQ0 22-202, limits assumed); experiment: surface plasmon resonance
human Tim-3 protein [3] = biological target: T2, human Tim-3 protein; experiment: Surface plasmon resonance
human Tim-3 protein [4] = biological target: T2, human Tim-3 protein; experiment: surface plasmon resonance; remark: listed apart in the source

Binder	binding result [1]	koff (human Tim-3 protein [2]) [s⁻¹]	kon (human Tim-3 protein [2]) [M⁻¹ s⁻¹]	Kd (human Tim-3 protein [3]) [nM]	koff (human Tim-3 protein [4]) [s⁻¹]	kon (human Tim-3 protein [4]) [M⁻¹ s⁻¹]
mAb 50B5 (antibody, V domains shown, Mouse hybridoma antibody, IgG1 with kappa chain) VH: EVQLQQSGPELVKPGASMKISCKASGYSFTGYTINWVKQSHGKNLEWIGLFNPYNGGTTFNQKFKGKATLTVDKSSSTAYMELLSLTSEDSAVYYCARRYYGYDAMDYWGQGTSVTVSS VL: NIMMTQSPSSLAVSAGEKVTMSCKSSQSVLYSSNQKNHLAWYQQKPGQSPKLLIYWASTRESGVPDRFTGSGSGTDFTLTISSVQAEDLAVYYCHQYLSSYTFGGGTKLEIK	no binding	2.35e-05	187000	0.13	–	–
mAb 15B4 (antibody, V domains shown, Mouse hybridoma antibody, IgG1 with kappa chain) VH: EVQLQQSGAEVVRPGALVKLSCKASGFNIKDYYMHWVRQRPEQGLEWIGWIDPENDNTIYDPKFQDRASITADTSSNTAYLQLSSLTSEDTAVYYCARDFGYVAWLVYWGQGTLVTVSA VL: DIVMTQSQEFMSTSVGDRVSITCKASQNVDTAVAWYQQKPGQSPKLLIYSASNRYTGVPDRFTGTGSGTDFTLTINNMQSEDLADYFCQQYSSYPTFGGRTKLEIKR	–	–	–	0.32	0.00029	910000

Source: patent publication US20250034248A1 (ALBERT EINSTEIN COLLEGE OF MEDICINE, published 2025)
